# US20050130203A1, “Novel GABAB receptor DNA sequences” (Board of Regents, The University of Texas System, priority 1998, published 2005)
# T1: FLAG epitope-tagged HG20 receptor subunit (FLAG epitope fused to amino acids 52-941 of HG20) (human, UniProt O75899 52-941)
# T1 construct: Expressed from SF-HG20/pcDNA3.1 in COS cells and melanophores, or from pT7TS cRNA in oocytes; For immunoprecipitation it was solubilized from membranes with digitonin; also called FLAG-HG20; SF-HG20
# T1 sequence: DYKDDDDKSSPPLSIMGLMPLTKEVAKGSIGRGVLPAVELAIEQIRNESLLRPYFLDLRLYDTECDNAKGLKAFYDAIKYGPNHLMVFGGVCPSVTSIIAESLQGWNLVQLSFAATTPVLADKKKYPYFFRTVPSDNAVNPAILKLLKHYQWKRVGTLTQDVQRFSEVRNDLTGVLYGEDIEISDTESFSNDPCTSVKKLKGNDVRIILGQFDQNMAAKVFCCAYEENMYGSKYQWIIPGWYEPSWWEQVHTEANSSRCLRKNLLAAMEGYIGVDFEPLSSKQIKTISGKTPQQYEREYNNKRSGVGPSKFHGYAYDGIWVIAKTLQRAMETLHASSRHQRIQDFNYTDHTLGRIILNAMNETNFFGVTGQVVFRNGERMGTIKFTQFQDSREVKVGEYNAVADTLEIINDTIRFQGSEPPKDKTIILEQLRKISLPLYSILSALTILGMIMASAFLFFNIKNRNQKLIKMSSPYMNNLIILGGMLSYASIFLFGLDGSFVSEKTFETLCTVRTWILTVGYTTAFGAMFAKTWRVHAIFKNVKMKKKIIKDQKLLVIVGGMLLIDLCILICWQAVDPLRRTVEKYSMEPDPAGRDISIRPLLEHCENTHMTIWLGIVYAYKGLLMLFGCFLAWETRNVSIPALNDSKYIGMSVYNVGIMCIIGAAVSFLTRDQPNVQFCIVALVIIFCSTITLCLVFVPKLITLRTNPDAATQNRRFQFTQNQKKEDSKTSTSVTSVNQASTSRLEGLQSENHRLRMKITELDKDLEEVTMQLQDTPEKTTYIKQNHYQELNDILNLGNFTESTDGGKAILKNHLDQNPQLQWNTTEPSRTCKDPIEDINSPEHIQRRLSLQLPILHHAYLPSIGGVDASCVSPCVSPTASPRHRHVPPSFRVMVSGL
# B1: murine GABABR1a (receptor)
# chain: GAQTPNVTSEGCQIIHPPWEGGIRYRGLIRDQVKAINFLPVDYEIEYVCRGEREVVGPKVRKCLANGSWTDMDTPSRCVRICSKSYLTLENGKVFLTGGDLPALDGARVDFRCDPDFHLVGSSRSICSQGQWSTPKPHCQVNRTPHSERRAVYIGALFPMSGGWPGGQACQPAVEMALEDVNSRRDILPDYELKLIHHDSKCDPGQATKYLYELLYNDPIKIILMPGCSSVSTLVAEAARMWNLIVLSYGSSSPALSNRQRFPTFFRTHPSATLHNPTRVKLFEKWGWKKIATIQQTTEVFTSTLDDLEERVKEAGIEITFRQSFFSDPAVPVKNLKRQDARIIVGLFYETEARKVFCEVYKERLFGKKYVWFLIGWYADNWFKTYDPSINCTVEEMTEAVEGHITTEIVMLNPANTRSISNMTSQEFVEKLTKRLKRHPEETGGFQEAPLAYDAIWALALALNKTSGGGGRSGVRLEDFNYNNQTITDQIYRAMNSSSFEGVSGHVVFDASGSRMAWTLIEQLQGGSYKKIGYYDSTKDDLSWSKTDKWIGGSPPADQTLVIKTFRFLSQKLFISVSVLSSLGIVLAVVCLSFNIYNSHARYIQNSQPNLNNLTAVGCSLALAVVFPLGLDGYHIGRSQFPFVCQARLWLLGLGFSLGYGSMFTKIWWVHTVFTKKEEKKEWRKTLEPWKLYATVGLLVGMDVLTLAIWQIVDPLHRTIETFAKEEPKEDIDVSILPQLEHCSSKKMNTWLGIFYGYKGLLLLLGIFLAYETKSVSTEKINDHRAVGMAIYNVAVLCLITAPVTMILSSQQDAAFAFASLAIVFSSYITLVVLFVPKMRRLITRGEWQSETQDTMKTGSSTNNNEEEKSRLLEKENRELEKIIAEKEERVSELRHQLQSRQQLRSRRHPPTPPDPSGGLPRGPSEPPDRLSCDGSRVHLLYK
# notes: Full-length cDNA was expressed in COS-7 cells, HEK293 cells, melanophores and oocytes; also called mgb1a; gb1a
# Columns and labels:
# [1] = tested on: wild-type HEK293 cells
# Experimental: Following a 20 min incubation at 37° C., the assay was terminated by setting the cells on ice and centrifuging at 2,000 rpm for 5 min at 4° C. […] Immulon II removawells (Dynatech; Chantilly, Va.) were coated overnight with 100 μl of protein G (1 mg/ml in 0.1M NaHCO3, pH 9.0) at 4° C. Prior to use, protein G-coated plates were rinsed with PBS-gelatin-Tween (phosphate buffered saline containing 0.1% gelatin, 0.2% Tween-20) 3 times quickly, and then once for 30 minutes. […] Plates were incubated 2 hr at 37° C. or overnight at 4° C., rinsed 3 times with sodium acetate buffer, blotted dry, and then individual wells were broken off and bound radioactivity was determined in a gamma counter.
# [2] = target: murine GABABR1a (murine) (UniProt Q9WV18); assay: cell-based or functional assay
# [3] = target: T2, GABABR1a (Mus musculus, UniProt Q9WV18); assay: Xenopus melanophore pigment aggregation/dispersion assay, GABABR1a alone; assay type: cell-based, murine; conditions: melanophores transfected with GABABR1a alone; up to 1 mM
# T2 construct: GABABR1a was expressed by subcloning full-length GABABR1a into the NheI-NotI site of pcDNA3.1 or pCIneo; expressed in transfected cells; host or cells: Xenopus laevis melanophores (transient)
# [4] = target: T1, FLAG epitope-tagged HG20 receptor …; assay: co-immunoprecipitation and immunoblot
# [5] = target: the molecule itself; assay: [125I]CGP71872 photolabelling of COS-7 membranes, SDS-PAGE (FIG. 9)
molecule,measurement,setting,value
NCC(CC(=O)O)c1ccc(Cl)cc1 (stereo not shown) [baclofen],inhibition of forskolin-stimulated cAMP synthesis,[1],did not exhibit
HG20 as expressed in HEK293 cells (HG20 cDNA in pcDNA3.1) (from UniProt O75899 42-941) (receptor),"reduction of forskolin-stimulated cAMP synthesis in HEK293 cells (hgb2-42 cells transfected with GABABR1a, baclofen)",[2],34 % reduction
same,"reduction of forskolin-stimulated cAMP synthesis in HEK293 cells (rgb1a-50 cells transfected with HG20, 30 µM GABA plus AOAA and nipecotic acid)",[2],40 % decrease
same,"reduction of forskolin-stimulated cAMP synthesis in HEK293 cells (rgb1a-50 cells transfected with HG20, 30 µM baclofen)",[2],28 % reduction
HG20 as expressed in HEK293 cells (HG20 cDNA in pcDNA3.1) (from UniProt O75899 42-941),"reduction of forskolin-stimulated cAMP synthesis in HEK293 cells (hgb2-42 cells transfected with GABABR1a, GABA plus AOAA and nipecotic acid)",[2],43 % decrease
NC/C=C\C(=O)O [cis-4-aminocrotonic acid],pigment aggregation or dispersion response,[3],no pigment aggregation or dispersion response
O=S(=O)(O)C1CCNCC1 [piperidine-4-sulfonic acid],pigment aggregation or dispersion response,[3],no pigment aggregation or dispersion response
"N[C@@H](CCC(=O)O)C(=O)O [L-Glutamate, (L)-glutamic acid]",pigment aggregation or dispersion response,[3],no pigment aggregation or dispersion response
B1,binding result,[4],binds
same,binding result,[5],binds
